{"source": "patent US20240325557A1", "about": "“TREATMENT OF CANCER” (INNATE PHARMA, priority 2020, published 2024)", "test_in_all_cases": "Binding to cell surface expressed Nectin-4 point mutant", "conditions_in_all_cases": "HEK-293T", "key": {"[1]": {"target": "T1, Nectin-4 Mutant 6 (H238A/I239T/H241Q) (Homo sapiens, UniProt Q96NY8, H238A/H241Q/I239T)", "T1 construct": "expressed in transfected cells; host or cells: HEK293T", "T1 sequence (Q96NY8 32-510 H238A/I239T/H241Q)": "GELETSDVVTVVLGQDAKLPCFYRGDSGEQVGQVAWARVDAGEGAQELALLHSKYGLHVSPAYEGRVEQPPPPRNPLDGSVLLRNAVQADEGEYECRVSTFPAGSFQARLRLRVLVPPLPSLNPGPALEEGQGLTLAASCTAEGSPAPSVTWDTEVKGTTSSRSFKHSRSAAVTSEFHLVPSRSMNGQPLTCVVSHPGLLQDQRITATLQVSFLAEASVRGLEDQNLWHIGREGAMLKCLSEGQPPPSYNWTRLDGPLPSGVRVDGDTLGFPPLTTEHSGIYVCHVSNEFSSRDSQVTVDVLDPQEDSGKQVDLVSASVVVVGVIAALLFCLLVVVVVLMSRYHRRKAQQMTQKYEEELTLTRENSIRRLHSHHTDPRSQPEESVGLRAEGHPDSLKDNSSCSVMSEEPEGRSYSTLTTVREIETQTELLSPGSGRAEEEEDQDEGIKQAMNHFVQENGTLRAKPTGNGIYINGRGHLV", "from_the_text": "(§1) Combined with the published structures of the Nectin-4 domains, Nectin-4 mutations at surface exposed amino acids residues were designed. Nectin-4 domain structure was modelled based on Protein Data Bank reference: 4FRW (domains V et C1). Human Nectin-4 used was NCBI Reference Sequence: NP_112178.2, mouse Nectin-4 used was NCBI Reference Sequence: AAL79833.1, cynomolgus Nectin-4 used was NCBI Reference Sequence: XP_005541277.1, rat Nectin-4 used was NCBI Reference Sequence: NP_001102546.1. The cells expressing the Nectin-4 mutants are then be used for testing anti-Nectin-4 antibodies for loss of binding to different Nectin-4 mutants to identify antibodies that bind to the same site on Nectin-4. […] FIGS. 12A and 12B show a molecular model of the human Nectin-4 protein, indicating the position of substituted residues in mutants 7 (12A) and in mutants 7bis (12B); these mutants are in the C1 domain identify two sites at the junction of domain C1 and V domain that are on opposing faces of the Nectin-4 protein.\n(§2) Nectin-4 mutants were generated by PCR. The sequences amplified were run on agarose gel and purified using the Macherey Nagel PCR Clean-Up Gel Extraction kit. The purified PCR products generated for each mutant were then ligated into an expression vector, with the ClonTech InFusion system. The vectors containing the mutated sequences were prepared as Miniprep and sequenced. After sequencing, the vectors containing the mutated sequences were prepared as Midiprep using the Promega PureYield™ Plasmid Midiprep System. HEK293T cells were grown in DMEM medium (Invitrogen), transfected with vectors using Invitrogen's Lipofectamine 2000 and incubated at 37° C. in a CO2 incubator for 48 hours prior to testing for transgene expression. The targeted amino acid mutations are shown in Table 2 below, listing the residue present in wild-type Nectin-4/position of residue/residue present in mutant Nectin-4, with position reference being to the Nectin-4 protein with leader peptide shown in SEQ ID NO: 1."}, "[2]": {"target": "T2, Nectin-4 Mutant 3 (A76S/Q77R/E78A/S91N) (Homo sapiens, UniProt Q96NY8, A76S/E78A/Q77R/S91N)", "T2 construct": "expressed in transfected cells; host or cells: HEK293T", "T2 sequence (Q96NY8 32-510 A76S/Q77R/E78A/S91N)": "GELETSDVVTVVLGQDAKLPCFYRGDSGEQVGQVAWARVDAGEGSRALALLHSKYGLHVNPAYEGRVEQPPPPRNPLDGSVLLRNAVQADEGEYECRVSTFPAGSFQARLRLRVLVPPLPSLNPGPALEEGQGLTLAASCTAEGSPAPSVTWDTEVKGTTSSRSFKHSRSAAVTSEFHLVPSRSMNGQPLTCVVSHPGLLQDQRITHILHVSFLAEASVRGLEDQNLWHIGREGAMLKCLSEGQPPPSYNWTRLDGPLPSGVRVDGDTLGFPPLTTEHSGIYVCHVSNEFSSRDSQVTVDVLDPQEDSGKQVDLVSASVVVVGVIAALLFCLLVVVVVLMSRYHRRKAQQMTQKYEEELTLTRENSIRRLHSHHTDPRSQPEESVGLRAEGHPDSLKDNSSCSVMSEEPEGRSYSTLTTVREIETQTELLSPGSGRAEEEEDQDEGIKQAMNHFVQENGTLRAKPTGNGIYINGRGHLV", "from_the_text": "as §1, §2"}, "[3]": {"target": "T3, Nectin-4 Mutant 7bis (A72P/G73N/K197T/S199A) (Homo sapiens, UniProt Q96NY8, A72P/G73N/K197T/S199A)", "T3 construct": "expressed in transfected cells; host or cells: HEK293T", "T3 sequence (Q96NY8 32-510 A72P/G73N/K197T/S199A)": "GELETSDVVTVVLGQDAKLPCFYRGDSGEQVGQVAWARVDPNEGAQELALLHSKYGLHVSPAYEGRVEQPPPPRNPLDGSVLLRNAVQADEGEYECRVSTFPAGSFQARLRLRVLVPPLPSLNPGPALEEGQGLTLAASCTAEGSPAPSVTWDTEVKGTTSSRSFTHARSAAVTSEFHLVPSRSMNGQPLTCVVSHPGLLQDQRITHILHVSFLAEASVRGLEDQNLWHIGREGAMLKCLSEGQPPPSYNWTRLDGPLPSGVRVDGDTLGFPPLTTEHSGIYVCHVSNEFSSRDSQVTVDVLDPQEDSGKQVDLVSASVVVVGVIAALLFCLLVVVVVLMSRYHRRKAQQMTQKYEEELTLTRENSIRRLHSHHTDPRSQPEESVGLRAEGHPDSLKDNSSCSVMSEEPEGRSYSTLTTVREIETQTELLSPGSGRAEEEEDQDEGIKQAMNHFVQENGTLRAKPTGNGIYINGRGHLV", "from_the_text": "as §1, §2"}, "[4]": {"target": "T4, Nectin-4 Mutant 7 (S195A/K197T/S199A) (Homo sapiens, UniProt Q96NY8, K197T/S195A/S199A)", "T4 construct": "expressed in transfected cells; host or cells: HEK293T", "T4 sequence (Q96NY8 32-510 S195A/K197T/S199A)": "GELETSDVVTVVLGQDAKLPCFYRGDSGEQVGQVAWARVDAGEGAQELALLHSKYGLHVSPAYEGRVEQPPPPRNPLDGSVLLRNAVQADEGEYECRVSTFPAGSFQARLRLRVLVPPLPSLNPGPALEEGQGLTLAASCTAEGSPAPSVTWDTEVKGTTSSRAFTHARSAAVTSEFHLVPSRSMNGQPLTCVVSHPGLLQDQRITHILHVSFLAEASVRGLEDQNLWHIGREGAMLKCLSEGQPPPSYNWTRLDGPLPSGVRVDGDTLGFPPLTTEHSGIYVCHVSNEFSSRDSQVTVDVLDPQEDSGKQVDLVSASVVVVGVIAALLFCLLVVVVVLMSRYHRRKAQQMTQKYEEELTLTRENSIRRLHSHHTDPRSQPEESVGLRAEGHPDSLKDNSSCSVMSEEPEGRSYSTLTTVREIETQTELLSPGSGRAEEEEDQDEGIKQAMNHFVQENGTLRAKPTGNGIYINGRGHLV", "from_the_text": "as §1, §2"}}}
{"molecule": "5E7 (antibody, V domains shown) VH: QVQLQQPGAELVKPGASVKLSCKASGYIFTSYWMHWVKQRPGQGLEWIGEIDPSDSYTNYNQKFKGKATLTLDKSSSTTYMQLSSLTSEDSAVYYCVRGYGNYGDYWGQGTTLTVSS VL: DVVMTQAAFSNPVTLGTSASISCRSSKSLLHSNGITYLYWYLQKPGQSPQLLIYQMSNLASGVPDRFSSSGSGTDFTLRISRVEAEDVGVYYCAQNLELPWTFGGGTKLEIK", "values": [{"measurement": "association with Nectin-4 Mutant 6", "setting": "[1]", "result": "+"}, {"measurement": "association with Nectin-4 Mutant 3", "setting": "[2]", "result": "+"}, {"measurement": "association with Nectin-4 Mutant 7bis", "setting": "[3]", "result": "−"}, {"measurement": "association with Nectin-4 Mutant 7", "setting": "[4]", "result": "−"}]}
{"molecule": "10B12: anti-Nectin-4 antibody, VH SEQ ID NO: 24, VL SEQ ID NO: 25, binds junction of domain C1 and V (antibody, listed as Mus musculus, V domains shown) VH: QVQLQQPGAELVKPGASVKLSCKASGYTFTSYWMHWVKQRPGQGLEWIGEIDPSDSYTNYNQKFKGKATLTVDKSSSTAYMQLSSLTSEDSAVYYCVRGYGNYGDYWGQGTTLTVSS VL: DIVMTQAAFSNPVTLGTSASISCRSSKSLLHSNGITYLYWYLQKPGQSPQLLIYQMSNLASGVPDRFSSSGSGTDFTLRISRVEAEDVGVYYCAQNLELPWTFGGGTKLEIK", "values": [{"measurement": "association with Nectin-4 Mutant 6", "setting": "[1]", "result": "+"}, {"measurement": "association with Nectin-4 Mutant 3", "setting": "[2]", "result": "+"}, {"measurement": "association with Nectin-4 Mutant 7bis", "setting": "[3]", "result": "−"}, {"measurement": "association with Nectin-4 Mutant 7", "setting": "[4]", "result": "−"}]}
{"molecule": "N41 (antibody, V domains shown) VH: QVQLKQSGPGLVQPSQSLSITCTVSGFSLTNYGVHWVRQSPGKGLEWLGVIWSGGSTDYNAAFISRLSISKDTSKSQVFFKMNSLQADDTAIYYCARELIHAMDNWGQGTSVTVSS VL: DIQMTQSPASLSVSVGETVTITCRASENIYSNLAWYQQKQGNSPQLLVFAATNLADGVPSRFSGSGSGTQYSLKINSLQSEDFGTYYCQHFWGTPTFGGGTKLEIK", "values": [{"measurement": "association with Nectin-4 Mutant 6", "setting": "[1]", "result": "+"}, {"measurement": "association with Nectin-4 Mutant 3", "setting": "[2]", "result": "+"}, {"measurement": "association with Nectin-4 Mutant 7bis", "setting": "[3]", "result": "+"}, {"measurement": "association with Nectin-4 Mutant 7", "setting": "[4]", "result": "+"}]}
